According to the supplement of paper PMC10567573:
± gives the standard deviation.

Assay: protein stability index of a GFP-peptide fusion (GPS, HEK-293T) (PSI 1-6); higher = more stable
Conditions: c terminus: a fixed tail appended
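Note: 24-mer peptide tiles fused after GFP, lentivirally expressed, FACS-sorted into six equal bins by GFP/DsRed ratio, decoded by Illumina sequencing, PSI is the read-weighted mean bin number.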

Row | Sequence | protein stability index (treatment: DMSO) | protein stability index (treatment: MLN4924 1 uM, 8 h)
1 | ELQREWLGNREALIQFLEQVHQGI [CPN1] | 2.76 ± 0.12 | 2.97 ± 0.3
2 | LAATQGLAHMIAECKKLFQVPEEM [DLC1] | 2.52 ± 0.33 | 2.47 ± 0.37
3 | GEYPRWDAWSGSNAYHIERLMSFR [CRYBA1] | 2.17 ± 0.22 | 2.41 ± 0.28
4 | PPHKHVARPTEVLAGTQLLYAFFT [TRIB3] | 2.46 ± 0.21 | 2.43 ± 0.15
5 | SDTPYDSSASYEKENEMMKSHVMD [IKZF1] | 5.2 ± 0.31 | 5.13 ± 0.2
6 | VRFSLGTTTHAPPGVHRRYSALRE [PPFIA4] | 2.72 ± 0.19 | 2.76 ± 0.19
7 | SARMSAGLPGPEAARSGDAAANKL [PLEKHN1] | 5.22 ± 0.085 | 4.92 ± 0.18
8 | CGFGGGAGSVFGGGFGGGVGGGFG [KRT15] | 2.27 ± 0.49 | 2.77 ± 0.23
9 | SETLEQKPHFESSTVKTETISFGS [EPB41L3] | 5.19 ± 0.073 | 4.95 ± 0.34
10 | DLAEFAKKQPWWRKLFGQESGPSA [FUNDC2] | 2.65 ± 0.13 | 2.58 ± 0.17
11 | NLSSRWKNWWVRGILTLAMIAFFF [CDS2] | 4.15 ± 0.14 | 4.04 ± 0.15
12 | SASLEVVKKDHVALQVPRGKEDST [CBY2] | 5.4 ± 0.16 | 5.35 ± 0.23
13 | QKNKKILKSAKDLPPDALIIEYRG [KMT2E] | 2.82 ± 0.43 | 3.07 ± 0.37
14 | SGTIMKIGIEAKNLASYDVCSILL [MCOLN1] | 2.87 ± 0.55 | 2.64 ± 0.37
15 | ESDVKHRTRDYKKTSLAPYVKVFE [PRIM1] | 3.39 ± 0.33 | 3.62 ± 0.38
16 | EEHESGIEQFSESHAIHVEEQSDQ [IQUB] | 5.61 ± 0.12 | 5.56 ± 0.11
17 | VIEPVVENSGILQGKLIKRQRLAK [EFHC1] |  | 3.68 ± 0.65
18 | NQGYLSEAGASLVDQKLELNIVPR [PI4K2A] | 4.05 ± 0.23 | 4.33 ± 0.28
19 | WSIFYFFKSFQYPLPWSECPVVRN [SLC6A17] | 2.41 ± 0.17 | 2.59 ± 0.47
20 | ASQPRGPALLFPATRGVPAKRLLD [TRIB1] | 3.72 ± 0.62 | 3.9 ± 0.36
21 | YGTKKFMQELTEMLGFRPYRFYFY [SLC6A17] | 2.29 ± 0.95 | 2.28 ± 0.48
22 | LFPQWHLPIKIAAIIASLTFLYTL [STEAP1] | 3.39 ± 0.8 | 3.13 ± 0.48
23 | VSVTYCSVSQDFPGSNLNLLTNNS [ETS2] | 2.59 ± 0.39 | 2.32 ± 0.39

Row | Sequence | protein stability index (treatment: DMSO) | protein stability index (treatment: MLN4924 1 uM, 8 h)
24 | PTWWPLPTQVPAAEDYLTWKEWGF [SPAG8] | 2.58 ± 0.18 | 2.35 ± 0.35
25 | TSVQEADETTRSDISERPSVDDIE [C2CD2L] | 5.57 ± 0.27 | 5.61 ± 0.19
26 | PLHVAQTRLYLRSHRPNMELCRDA [TEKT4] | 2.9 ± 0.17 | 3 ± 0.18
27 | NSLFIDRQKCMAHRTRYPTILQLA [TEKT4] | 2.23 ± 0.34 | 2.12 ± 0.23
28 | MAKFVIRPATAADCSDILRLIKEL [SAT1] | 2.04 ± 0.16 | 2.22 ± 0.22
29 | KALQEENRDLRKASVTIQARAEQE [CCDC6] | 5.32 ± 0.2 | 5.32 ± 0.091
30 | DNDPSCVHPIIKRRQCRPEIRMWQ [PHTF1] | 2.54 ± 0.25 | 2.5 ± 0.41
31 | MTQVITRTQEEKLEHVRALIKKYS [TRIM55] | 2.68 ± 0.11 | 2.94 ± 0.3
32 | QRSTVFKTTIPEEEEEEEEAAGVV [LMNB1] | 5.6 ± 0.11 | 5.56 ± 0.22
33 | RNKESPVFAPVYFPEELHRKAALE [HMOX1] | 4.11 ± 0.4 | 4.147 ± 0.023
34 | KLIATSNKPAVKLLYNRSNNKYSY [KCTD10] | 2.23 ± 0.14 | 2.49 ± 0.23
35 | YQNHKITQLKIENNPFAKGFRGSD [TBX5] | 2.96 ± 0.5 | 3.55 ± 0.61
36 | LHEALQDYEAGQHMEDPRRAGKML [ESRRG] | 4.74 ± 0.29 | 4.68 ± 0.38
37 | SKIPHILKEMYDADLLEEEVIISW [EIF5] | 2.19 ± 0.38 | 2.4 ± 0.24
38 | LYLCPNGARCATWFQDPTRFTGTM [SLC25A39] | 2.82 ± 0.64 | 2.7 ± 0.63
39 | VLVNLVPAHKNLNKQAYDLAKALL [PDS5B] | 3.47 ± 0.59 | 3.07 ± 0.89
40 | MKALILVGGYGTRLRPLTLSTPKP [GMPPB] | 2.18 ± 0.61 | 2.23 ± 0.23
41 | CEDLDELHYQDTDSDVPEQRDSKC [MYBL2] | 5.65 ± 0.37 | 5.54 ± 0.24
42 | NPTEPATIIFTAAREGRETLKCLS [TOR1AIP2] | 3.71 ± 0.25 | 3.69 ± 0.12
43 | VNEFSLKGVDFQKFCMNGAALCAL [ETS1] | 2.32 ± 0.76 | 2.3 ± 0.033
44 | VAPPAKQAQQKKAPAKKANSTTTA [BRD3] | 5.11 ± 0.26 | 5.26 ± 0.13
45 | DLFGWSQLIYNHITTRVNSEQEHF [ADD1] | 2.72 ± 0.51 | 2.55 ± 0.41
46 | RTYKQRFLFAKLFSHITSARKARK [PHTF1] | 2.17 ± 0.14 | 2.55 ± 0.58

Row | Sequence | protein stability index (treatment: DMSO) | protein stability index (treatment: MLN4924 1 uM, 8 h)
47 | TAGPITGLVYRLNRFRVEISFHFE [TRIM43] | 3.02 ± 0.7 | 3.2 ± 0.52
48 | TKKHIPYREHKSLTGTARYMSINT [CSNK1G1] | 2.51 ± 0.15 | 2.65 ± 0.23
49 | FRCPTCRHEVIMDRHGVYGLQRNL [TRIM63] | 2.31 ± 0.3 | 2.83 ± 0.52
50 | SSISSTSNEQLKVTQEPRAKKGRR [ZMYND11] | 5.24 ± 0.48 | 5.45 ± 0.077
51 | FYTCASHVTVVILFFVPCIFLYAR [OR4A15] | 3.13 ± 0.35 | 3.08 ± 0.26
52 | PCKLEKMRILAHGELVLATAISSF [TLE6] | 2.7 ± 0.36 | 2.45 ± 0.41
53 | SLEIEEKINKIRWLPQQNAAYFLL [PPP2R2B] | 2.34 ± 1.1 | 2.01 ± 1.1
54 | ARRYAGPLHHQTQRFRLDNLLNMA [ELAVL3] | 2.78 ± 0.35 | 2.75 ± 0.31
55 | IAVLGIVMLKRIHSLYRRTGASFQ [SCAMP3] | 2.34 ± 0.53 | 2.25 ± 0.18
56 | LCPLCGKNFSNNSNLIRHQRIHAA [ZNF263] | 3.97 ± 0.5 | 4.12 ± 0.47
57 | AQTPPRPGPPSAPPPPPKEGHQEG [SCNN1D] | 5.73 ± 0.27 | 5.08 ± 0.72
58 | ARMGFNASSMLRKSQLGFLNVTNY [DCAF4] | 2.26 ± 0.13 | 2.24 ± 0.14
59 | HGISIPEPEDMETLEEKFSDVHPV [CDKL4] | 5.29 ± 0.2 | 4.98 ± 0.28
60 | LGGEQAEEKAFESVIEPVQESSFR [MIA2] | 5.16 ± 0.54 | 5.44 ± 0.1
61 | EARGIRAPPLPDSPQPLASSPGPW [FCHO1] | 4.34 ± 0.28 | 4.31 ± 0.15
62 | PAAGLDVTQPCGDCGTIQENWVCL [HDAC6] | 2.68 ± 0.25 | 2.79 ± 0.25
63 | SLDKRQGEGLRIYWGSPEEQSLLS [TPRG1] | 2.77 ± 0.15 | 2.85 ± 0.39
64 | GEDIPEKIKDEVHPEVKCVGSVAL [C8orf76] | 4.84 ± 0.39 | 4.81 ± 0.31
65 | VRNNRSIIKQLKDVFERDWYSPYA [PLD5] | 2.41 ± 0.54 | 2.41 ± 0.21
66 | PKDENERSTCNVVQDEFLDTPCTN [DLC1] | 5.45 ± 0.15 | 5.41 ± 0.13
67 | DLIDNLKEAQYIRTERVEQAFRAI [PCMTD1] | 2.29 ± 0.17 | 2.27 ± 0.14
68 | LGETPENSNLEEPLNPKPHKKKSP [ZNF449] | 5.41 ± 0.38 | 5.47 ± 0.12
69 | SVGHNWRKRMGTRRGRHEQSPTSR [C22orf15] | 4.32 ± 0.065 | 4.49 ± 0.25

Row | Sequence | protein stability index (treatment: DMSO) | protein stability index (treatment: MLN4924 1 uM, 8 h)
70 | MTEMSFLSSEVLVGDLMSPFDQSG [ATF4] | 3.37 ± 0.1 | 3.24 ± 0.37
71 | RKVCVGGKRRKDEISVDSLDFSKK [PPP2R2B] | 4.33 ± 0.26 | 4.31 ± 0.27
72 | ASTSLPTKPTQGASSASEPQGLFV [CLPTM1] | 4.42 ± 0.12 | 4.29 ± 0.48
73 | LWTSFIQSVSYSKLLSVIVWMLML [P2RY14] | 3.32 ± 0.53 | 3.4 ± 0.21
74 | ENRGIVVLGINRAYGKNSLSKNLI [AUH] | 2.84 ± 1.2 | 2.44 ± 1.2
75 | VEEGNVQTLLPAACLLQLAEIQEA [KLHL20] | 3.58 ± 0.52 | 3.84 ± 0.43
76 | GLGNTWPGASGSAQSLDRLGIMGA [ATP23] | 3.3 ± 0.24 | 3.48 ± 0.3
77 | TPAEGDTEEDDGFVDILESDLKDD [CDC25B] | 5.34 ± 0.3 | 5.62 ± 0.24
78 | TNFEGPPRLKEDQPWMVIEGIRQT [FSD1] | 3.5 ± 0.082 | 3.75 ± 0.33
79 | SVTLEDVTPKKSPPPKTNLTPGQS [FAN1] | 5.11 ± 0.18 | 5.24 ± 0.34
80 | SLQLVFGIELMEVDPIGHLYIFAT [MAGEA3] | 2.91 ± 0.23 | 2.74 ± 0.76
81 | TGSYNNFFRMFDRNTKRDVTLEAS [PPP2R2B] | 3.1 ± 0.26 | 3.47 ± 0.33
82 | DAVGMLGIEEVTYENCLQALADVE [NLN] | 4.25 ± 0.27 | 3.9 ± 0.34
83 | AAALLSNTTCQTENRLSVFFSVIF [PTGFR] | 2.43 ± 0.35 | 2.33 ± 0.18
84 | RKLLEGEESRISVPVHSFASLNIK [PRPH] | 2.96 ± 0.23 | 3.31 ± 0.41
85 | VTCKDKKGYTPLHAAASNGQINVV [ANKRD44] | 3.34 ± 0.12 | 3.24 ± 0.27
86 | NEYFFDRNRPSFDAILYYYQSGGR [KCNA3] | 2.34 ± 0.3 | 2.42 ± 0.18
87 | GDRMFYRDWWNSTSFSNYYRTWNV [SOAT2] | 2.19 ± 0.16 | 2.28 ± 0.39
88 | CHLCVNYIEMQTDPANCDYVIVSG [YJU2B] | 2.71 ± 0.26 | 2.57 ± 0.33
89 | SCAWSLNIQANNCFSTGLSRRVLL [DCAF4] | 3.38 ± 0.47 | 2.35 ± 0.38
90 | KFFFKSMDDDFGVVKEEISDDNAK [DVL3] | 4.76 ± 0.19 | 4.81 ± 0.099
